The values below come from patent US7446182.

The target in experiment [1] is Bacillus anthracis protective antigen (PA), 83 kDa polypeptide (Bacillus anthracis) (UniProt P13423).
Experiment [2] has the same target. This is another data set of the same source.

Bacillus anthracis protective antigen (PA), 83 kDa polypeptide (Bacillus anthracis), sequence (P13423 30-764 limits assumed): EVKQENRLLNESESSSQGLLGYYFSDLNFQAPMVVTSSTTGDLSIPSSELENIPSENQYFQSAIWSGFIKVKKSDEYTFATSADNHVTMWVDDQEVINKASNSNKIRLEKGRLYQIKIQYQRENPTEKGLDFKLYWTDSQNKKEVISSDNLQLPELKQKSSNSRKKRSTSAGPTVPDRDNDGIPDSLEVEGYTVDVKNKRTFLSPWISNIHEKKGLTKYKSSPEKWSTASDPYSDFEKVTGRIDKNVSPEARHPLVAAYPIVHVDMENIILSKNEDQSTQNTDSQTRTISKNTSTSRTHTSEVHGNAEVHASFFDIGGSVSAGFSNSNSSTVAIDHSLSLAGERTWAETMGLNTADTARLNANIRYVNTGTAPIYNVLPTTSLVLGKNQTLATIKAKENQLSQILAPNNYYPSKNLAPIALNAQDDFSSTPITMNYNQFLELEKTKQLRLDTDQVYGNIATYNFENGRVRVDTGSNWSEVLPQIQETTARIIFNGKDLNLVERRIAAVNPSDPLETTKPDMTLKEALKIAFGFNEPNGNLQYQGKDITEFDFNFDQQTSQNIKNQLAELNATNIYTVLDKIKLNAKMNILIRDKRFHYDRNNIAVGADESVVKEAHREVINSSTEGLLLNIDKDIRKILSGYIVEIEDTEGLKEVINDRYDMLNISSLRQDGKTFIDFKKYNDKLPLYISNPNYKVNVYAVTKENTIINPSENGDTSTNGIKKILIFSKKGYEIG

Turning to 14B7 scFv with the mutation L97Leu:Ala, in experiment [1], the Kd is 63 nM, the off-rate (koff) is 0.019 s⁻¹ and the kon came to 300000 M⁻¹ s⁻¹. In experiment [2], the fold higher KD than 14B7 is > 5 fold.
